Article PMC3891507 (2014)

How the values were obtained:
Laminin 111 [1] = target: Laminin 111 (Mus musculus, UniProt P19137, LARGE-glycan (control myotubes), Ca2+); assay: solid-phase binding assay
Laminin 111 [2] = target: Laminin 111 (Mus musculus, UniProt P19137, shortened LARGE-glycan (LargeKD myotubes), Ca2+); assay: solid-phase binding assay

B1: alpha-dystroglycan (protein)
chain: HWPSEPSEAVRDWKNQLEASMHSVLSDFQEAVPTVVGIPDGTAVVGRSFRVSIPTDLIASSGEIIKVSAAGKEALPSWLHWDPHSHILEGLPLDTDKGVHYISVSAARLGANGSHVPQTSSVFSIEVYPEDHNEPQSVRAASSDPGEVVPSACAADEPVTVLTVILDADLTKMTPKQRIDLLNRMQSFSEVELHNMKLVPVVNNRLFDMSAFMAGPGNAKKVVENGALLSWKLGCSLNQNSVPDIRGVETPAREGAMSAQLGYPVVGWHIANKKPTLPKRLRRQIHATPTPVTAIGPPTTAIQEPPSRIVPTPTSPAIAPPTETMAPPVRDPVPGKPTVTIRTRGAIIQTPTLGPIQPTRVSEAGTTVPGQIRPTLTIPGYVEPTAVITPPTTTTKKPRVSTPKPATPSTDSSTTTTRRPTKKPRTPRPVPRVTTKAPITRLETASPPTRIRTTTSGVPRGGEPNQRPELKNHIDRVDAWVGTYFEVKIPSDTFYDNEDTTTDKLKLTLKLREQQLVGEKSWVQFNSNSQLMYGLPDSSHVGKHEYFMHATDKGGLSAVDAFEIHVHKRPQGDKAPARFKARLAGDPAPVVNDIHKKIALVKKLAFAFGDRNCSSITLQNITRG
- Kd (Laminin 111 [1]): 2.93 nM
- Kd (Laminin 111 [2]): 4.75 nM
